The Kd is a measure of binding affinity in units of concentration. A higher Kd goes with lower affinity.

This passage reports Kd results from article PMC2748841 (Nature, 2009).

In the experiment the target is biotin-Aβ42-oligomer (UniProt P05067). Put plainly: binding of biotinylated ligand to transfected cells.

B1: Transmembrane protein 30B (TMEM30B) (natural protein)
chain: MTWSATARGAHQPDNTAFTQQRLPAWQPLLSASIALPLFFCAGLAFIGLGLGLYYSSNGIKELEYDYTGDPGTGNCSVCAAAGQGRALPPPCSCAWYFSLPELFQGPVYLYYELTNFYQNNRRYGVSRDDAQLSGLPSALRHPVNECAPYQRSAAGLPIAPCGAIANSLFNDSFSLWHQRQPGGPYVEVPLDRSGIAWWTDYHVKFRNPPLVNGSLALAFQGTAPPPNWRRPVYELSPDPNNTGFINQDFVVWMRTAALPTFRKLYARIRQGNYSAGLPRGAYRVNITYNYPVRAFGGHKLLIFSSISWMGGKNPFLGIAYLVVGSLCILTGFVMLVVYIRYQDQDDDDEE
For the molecule B1, binding was put at a Kd of 720 nM.

B2: Amyloid precursor-like protein 1 (APLP1) (natural protein)
chain: SLAGGSPGAAEAPGSAQVAGLCGRLTLHRDLRTGRWEPDPQRSRRCLRDPQRVLEYCRQMYPELQIARVEQATQAIPMERWCGGSRSGSCAHPHHQVVPFRCLPGEFVSEALLVPEGCRFLHQERMDQCESSTRRHQEAQEACSSQGLILHGSGMLLPCGSDRFRGVEYVCCPPPGTPDPSGTAVGDPSTRSWPPGSRVEGAEDEEEEESFPQPVDDYFVEPPQAEEEEETVPPPSSHTLAVVGKVTPTPRPTDGVDIYFGMPGEISEHEGFLRAKMDLEERRMRQINEVMREWAMADNQSKNLPKADRQALNEHFQSILQTLEEQVSGERQRLVETHATRVIALINDQRRAALEGFLAALQADPPQAERVLLALRRYLRAEQKEQRHTLRHYQHVAAVDPEKAQQMRFQVHTHLQVIEERVNQSLGLLDQNPHLAQELRPQIQELLHSEHLGPSELEAPAPGGSSEDKGGLQPPDSKDDTPMTLPKGSTEQDAASPEKEKMNPLEQYERKVNASVPRGFPFHSSEIQRDELAPAGTGVSREAVSGLLIMGAGGGSLIVLSMLLLRRKKPYGAISHGVVEVDPMLTLEEQQLRELQRHGYENPTYRFLEERP
Molecule B2 came in with a Kd of 660 nM.

B3: cellular Prion Protein (PrP^C), full-length mouse PrP expressed on COS-7 cells (receptor)
chain: not shown
B3 gave a Kd of 92 nM. This Kd is about 7.2-fold lower than that of the molecule before.
